Results on 21 molecules are retold here after US20250066503A1, “CELL INJURY INDUCING THERAPEUTIC DRUG FOR USE IN CANCER THERAPY” (CHUGAI SEIYAKU KABUSHIKI KAISHA, priority 2016, published 2025).

In the experiment the target is T1, soluble human CD3 epsilon chain (human, UniProt P07766 23-126).
T1 construct: also called CD3ε
The experiment in a line: SPR.

T1 sequence (P07766 23-126 limits assumed): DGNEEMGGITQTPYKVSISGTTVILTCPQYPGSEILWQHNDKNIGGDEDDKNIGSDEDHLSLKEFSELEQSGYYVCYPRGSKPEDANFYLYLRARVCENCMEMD

B1: TR01H061-E22Hh/none-Hi-Kn010G3/L0222-k0 (antibody, V domains shown)
VH: QVQLVESGGGLVQPGRSLRLSCAASGFTFSNAWMHWVRQAPGKGLEWVAQIKDKSQNYATYYAESVKGRFTISRADSKNSIYLQMNSLKTEDTAVYYCRYVHYAASYGVDIWGQGTTVTVSS
VL: DIVMTQSPLSLPVTPGEPASISCRSSQSPVHSNRNTYIQWYQQKPGQAPRLLIYKVSNRFSGVPDRFSGSGSGTDFTLKISRVEAEDVGVYYCYQGTQVPYTFGQGTKLEIKR
notes: one-arm
In turn, B1 came in with a Kd of 18.8 nM.

B2: TR01H065-E22Hh/none-Hi-Kn010G3/L0000-k0 (antibody, V domains shown)
VH: QVQLVESGGGLVQPGRSLRLSCAASGFTFSNAWMHWVRQAPGKGLEWVAQIKDKSQNYATYYAESVKGRFTISRDDSKNSIYLQMNSLKTEDTAVYYCRYVHYAASYGVDAWGQGTTVTVSS
VL: DIVMTQSPLSLPVTPGEPASISCRSSQSLVHSNRNTYLHWYQQKPGQAPRLLIYKVSNRFSGVPDRFSGSGSGTDFTLKISRVEAEDVGVYYCGQGTQVPYTFGQGTKLEIKR
notes: one-arm
Molecule B2 displayed a Kd of 43.1 nM.

B3: TR01H069-E22Hh/none-Hi-Kn010G3/L0000-k0 (antibody, V domains shown)
VH: QVQLVESGGGVVQPGGSLRLSCAASGFTFSNAWMHWVRQAPGKGLEWVAQIKDKSQNYATYYAESVKGRFTISRDDSKNSLYLQMNSLKTEDTAVYYCRYVHYAASYGVDIWGQGTTVTVSS
VL: DIVMTQSPLSLPVTPGEPASISCRSSQSLVHSNRNTYLHWYQQKPGQAPRLLIYKVSNRFSGVPDRFSGSGSGTDFTLKISRVEAEDVGVYYCGQGTQVPYTFGQGTKLEIKR
notes: one-arm
On to B3, for which binding was put at a Kd of 71.1 nM.

B4: TR01H071-E22Hh/none-Hi-Kn010G3/L0000-k0 (antibody, V domains shown)
VH: QVQLVESGGGLVQPGRSLRLSCAASGFTFSNAWMHWVRQAPGKGLEWVAQIKDKSNNYATYYAESVKGRFTISRADSKNSIYLQMNSLKTEDTAVYYCRYVHYAASYGVDIWGQGTTVTVSS
VL: DIVMTQSPLSLPVTPGEPASISCRSSQSLVHSNRNTYLHWYQQKPGQAPRLLIYKVSNRFSGVPDRFSGSGSGTDFTLKISRVEAEDVGVYYCGQGTQVPYTFGQGTKLEIKR
notes: one-arm
As to B4, the Kd turned out to be 8.85 nM.

B5: TR01H064-E22Hh/none-Hi-Kn010G3/L0000-k0 (antibody, V domains shown)
VH: QVQLVESGGGLVQPGRSLRLSCSASGFTFSNAWMHWVRQAPGKGLEWVAQIKDKSQNYATYYAESVKGRFTISRADSKNSIYLQMNSLKTEDTAVYYCRYVHYAASYGVDAWGQGTTVTVSS
VL: DIVMTQSPLSLPVTPGEPASISCRSSQSLVHSNRNTYLHWYQQKPGQAPRLLIYKVSNRFSGVPDRFSGSGSGTDFTLKISRVEAEDVGVYYCGQGTQVPYTFGQGTKLEIKR
notes: one-arm
Turning to B5, binding was put at a Kd of 30.7 nM.

B6: TR01H063-E22Hh/none-Hi-Kn010G3/L0000-k0 (antibody, V domains shown)
VH: QVQLVESGGGVVQPGGSLRLSCAASGFTFSNAWMHWVRQAPGKGLEWVAQIKDKSQNYATYYAESVKGRFTISRADSKNSIYLQMNSLKTEDTAVYYCRYVHYAASYGVDAWGQGTTVTVSS
VL: DIVMTQSPLSLPVTPGEPASISCRSSQSLVHSNRNTYLHWYQQKPGQAPRLLIYKVSNRFSGVPDRFSGSGSGTDFTLKISRVEAEDVGVYYCGQGTQVPYTFGQGTKLEIKR
notes: one-arm
On to B6, for which the Kd worked out at 43.5 nM.

B7: TR01H070-E22Hh/none-Hi-Kn010G3/L0000-k0 (antibody, V domains shown)
VH: QVQLVESGGGVVQPGGSLRLSCAASGFTFSNAWMHWVRQAPGKGLEWVAQIKDKSQNYATYYAESVKGRFTISRDDSKNSLYLQMNSLKTEDTAVYYCRYVHYAASYGVDYWGQGTTVTVSS
VL: DIVMTQSPLSLPVTPGEPASISCRSSQSLVHSNRNTYLHWYQQKPGQAPRLLIYKVSNRFSGVPDRFSGSGSGTDFTLKISRVEAEDVGVYYCGQGTQVPYTFGQGTKLEIKR
notes: one-arm
B7 had a Kd of 120 nM.

B8: TR01H067-E22Hh/none-Hi-Kn010G3/L0212-k0 (antibody, V domains shown)
VH: QVQLVESGGGLVQPGRSLRLSCAASGFTFSNAWMHWVRQAPGKGLEWVAQIKDKSQNYATYYAESVKGRFTISRDDSKNSLYLQMNSLKTEDTAVYYCRYVHYAASYGVDAWGQGTTVTVSS
VL: DIVMTQSPLSLPVTPGEPASISCRPSQSPVHSNRNTYLHWYQQKPGQAPRLLIYKVSNRFSGVPDRFSGSGSGTDFTLKISRVEAEDVGVYYCYQGTQVPYTFGQGTKLEIKR
notes: one-arm
Regarding B8, the Kd worked out at 5.88 nM.

B9: TR01H068-E22Hh/none-Hi-Kn010G3/L0000-k0 (antibody, V domains shown)
VH: QVQLVESGGGVVQPGGSLRLSCAASGFTFSNAWMHWVRQAPGKGLEWVAQIKDKSQNYATYYAESVKGRFTISRDDSKNSLYLQMNSLKTEDTAVYYCRYVHYAASYGVDAWGQGTTVTVSS
VL: DIVMTQSPLSLPVTPGEPASISCRSSQSLVHSNRNTYLHWYQQKPGQAPRLLIYKVSNRFSGVPDRFSGSGSGTDFTLKISRVEAEDVGVYYCGQGTQVPYTFGQGTKLEIKR
notes: one-arm
The molecule B9 gave a Kd of 101 nM.

B10: TR01H066-E22Hh/none-Hi-Kn010G3/L0000-k0 (antibody, V domains shown)
VH: QVQLVESGGGLVQPGRSLRLSCAASGFTFSNAWMHWVRQAPGKGLEWVAQIKDKSQNYATYYAESVKGRFTISRADSKNSLYLQMNSLKTEDTAVYYCRYVHYAASYGVDAWGQGTTVTVSS
VL: DIVMTQSPLSLPVTPGEPASISCRSSQSLVHSNRNTYLHWYQQKPGQAPRLLIYKVSNRFSGVPDRFSGSGSGTDFTLKISRVEAEDVGVYYCGQGTQVPYTFGQGTKLEIKR
notes: one-arm
In turn, B10 came in with a Kd of 60.2 nM.

B11: TR01H075-E22Hh/none-Hi-Kn010G3/L0000-k0 (antibody, V domains shown)
VH: QVQLVESGGGLVQPGRSLRLSCAASGFTFSNAWMHWVRQAPGKGLEWVAQIKDKSQNYATYYAESVKGRFTISRDDSKNSLYLQMNSLKTEDTAVYYCRYVHYAASYGVDYWGQGTTVTVSS
VL: DIVMTQSPLSLPVTPGEPASISCRSSQSLVHSNRNTYLHWYQQKPGQAPRLLIYKVSNRFSGVPDRFSGSGSGTDFTLKISRVEAEDVGVYYCGQGTQVPYTFGQGTKLEIKR
notes: one-arm
Molecule B11 had a Kd of 98.8 nM.

B12: TR01H073-E22Hh/none-Hi-Kn010G3/L0000-k0 (antibody, V domains shown)
VH: QVQLVESGGGLVQPGRSLRLSCAASGFTFSNAWMHWVRQAPGKGLEWVAQIKDKSQNYATYYAESVKGRFTISRDDSKNSLYLQMNSLKTEDTAVYYCRYVHYAASYGVDIWGQGTTVTVSS
VL: DIVMTQSPLSLPVTPGEPASISCRSSQSLVHSNRNTYLHWYQQKPGQAPRLLIYKVSNRFSGVPDRFSGSGSGTDFTLKISRVEAEDVGVYYCGQGTQVPYTFGQGTKLEIKR
notes: one-arm
The molecule B12 had a dissociation constant (Kd) of 59.7 nM.

B13: TR01H071-E22Hh/none-Hi-Kn010G3/L0222-k0 (antibody, V domains shown)
VH: QVQLVESGGGLVQPGRSLRLSCAASGFTFSNAWMHWVRQAPGKGLEWVAQIKDKSNNYATYYAESVKGRFTISRADSKNSIYLQMNSLKTEDTAVYYCRYVHYAASYGVDIWGQGTTVTVSS
VL: DIVMTQSPLSLPVTPGEPASISCRSSQSPVHSNRNTYIQWYQQKPGQAPRLLIYKVSNRFSGVPDRFSGSGSGTDFTLKISRVEAEDVGVYYCYQGTQVPYTFGQGTKLEIKR
notes: one-arm
B13 registered a Kd of 10.4 nM.

B14: TR01H072-E22Hh/none-Hi-Kn010G3/L0000-k0 (antibody, V domains shown)
VH: QVQLVESGGGLVQPGRSLRLSCAASGFTFSNAWMHWVRQAPGKGLEWVAQIKDKSQNYATYYAESVKGRFTISRADSKNSIYLQMNSLKTEDTAVYYCRYVHYAASYGVDIWGQGTTVTVSS
VL: DIVMTQSPLSLPVTPGEPASISCRSSQSLVHSNRNTYLHWYQQKPGQAPRLLIYKVSNRFSGVPDRFSGSGSGTDFTLKISRVEAEDVGVYYCGQGTQVPYTFGQGTKLEIKR
notes: one-arm
Molecule B14 gave a Kd of 20.3 nM.

B15: TR01H067-E22Hh/none-Hi-Kn010G3/L0201-k0 (antibody, V domains shown)
VH: QVQLVESGGGLVQPGRSLRLSCAASGFTFSNAWMHWVRQAPGKGLEWVAQIKDKSQNYATYYAESVKGRFTISRDDSKNSLYLQMNSLKTEDTAVYYCRYVHYAASYGVDAWGQGTTVTVSS
VL: DIVMTQSPLSLPVTPGEPASISCRSSQPPVHSNRNTYLHWYQQKPGQAPRLLIYKVSNRFSGVPDRFSGSGSGTDFTLKISRVEAEDVGVYYCGQGTQVPYTFGQGTKLEIKR
notes: one-arm
In turn, B15 displayed a Kd of 59.3 nM.

B16: TR01H067-E22Hh/none-Hi-Kn010G3/L0222-k0 (antibody, V domains shown)
VH: QVQLVESGGGLVQPGRSLRLSCAASGFTFSNAWMHWVRQAPGKGLEWVAQIKDKSQNYATYYAESVKGRFTISRDDSKNSLYLQMNSLKTEDTAVYYCRYVHYAASYGVDAWGQGTTVTVSS
VL: DIVMTQSPLSLPVTPGEPASISCRSSQSPVHSNRNTYIQWYQQKPGQAPRLLIYKVSNRFSGVPDRFSGSGSGTDFTLKISRVEAEDVGVYYCYQGTQVPYTFGQGTKLEIKR
notes: one-arm
On to B16, for which the Kd was 76.3 nM.

B17: TR01H067-E22Hh/none-Hi-Kn010G3/L0011-k0 (antibody, V domains shown)
VH: QVQLVESGGGLVQPGRSLRLSCAASGFTFSNAWMHWVRQAPGKGLEWVAQIKDKSQNYATYYAESVKGRFTISRDDSKNSLYLQMNSLKTEDTAVYYCRYVHYAASYGVDAWGQGTTVTVSS
VL: DIVMTQSPLSLPVTPGEPASISCRSSQPLVHSNRNTYLHWYQQKPGQAPRLLIYKVSNRFSGVPDRFSGSGSGTDFTLKISRVEAEDVGVYYCGQGTQVPYTFGQGTKLEIKR
notes: one-arm
Take B17: binding was characterised by a dissociation constant (Kd) of 71.8 nM.

B18: TR01H067-E22Hh/none-Hi-Kn010G3/L0203-k0 (antibody, V domains shown)
VH: QVQLVESGGGLVQPGRSLRLSCAASGFTFSNAWMHWVRQAPGKGLEWVAQIKDKSQNYATYYAESVKGRFTISRDDSKNSLYLQMNSLKTEDTAVYYCRYVHYAASYGVDAWGQGTTVTVSS
VL: DIVMTQSPLSLPVTPGEPASISCRSSQSPVHSNRNTYIHWYQQKPGQAPRLLIYKVSNRFSGVPDRFSGSGSGTDFTLKISRVEAEDVGVYYCGQGTQVPYTFGQGTKLEIKR
notes: one-arm
For the molecule B18, the Kd was 47.9 nM.

B19: TR01H076-E22Hh/none-Hi-Kn010G3/L0000-k0 (antibody, V domains shown)
VH: QVQLVESGGGVVQPGGSLRLSCAASGFTFSNAWMHWVRQAPGKGLEWVAQIKDKSQNYATYYAESVKGRFTISRADSKNSIYLQMNSLKTEDTAVYYCRYVHYAASYGVDYWGQGTTVTVSS
VL: DIVMTQSPLSLPVTPGEPASISCRSSQSLVHSNRNTYLHWYQQKPGQAPRLLIYKVSNRFSGVPDRFSGSGSGTDFTLKISRVEAEDVGVYYCGQGTQVPYTFGQGTKLEIKR
notes: one-arm
Consider B19, for which the Kd was found to be 47.8 nM.

B20: TR01H067-E22Hh/none-Hi-Kn010G3/L0000-k0 (antibody, V domains shown)
VH: QVQLVESGGGLVQPGRSLRLSCAASGFTFSNAWMHWVRQAPGKGLEWVAQIKDKSQNYATYYAESVKGRFTISRDDSKNSLYLQMNSLKTEDTAVYYCRYVHYAASYGVDAWGQGTTVTVSS
VL: DIVMTQSPLSLPVTPGEPASISCRSSQSLVHSNRNTYLHWYQQKPGQAPRLLIYKVSNRFSGVPDRFSGSGSGTDFTLKISRVEAEDVGVYYCGQGTQVPYTFGQGTKLEIKR
notes: one-arm
The molecule B20 had a Kd of 71.5 nM.

B21: TR01H074-E22Hh/none-Hi-Kn010G3/L0000-k0 (antibody, V domains shown)
VH: QVQLVESGGGVVQPGGSLRLSCAASGFTFSNAWMHWVRQAPGKGLEWVAQIKDKSQNYATYYAESVKGRFTISRADSKNSIYLQMNSLKTEDTAVYYCRYVHYAASYGVDIWGQGTTVTVSS
VL: DIVMTQSPLSLPVTPGEPASISCRSSQSLVHSNRNTYLHWYQQKPGQAPRLLIYKVSNRFSGVPDRFSGSGSGTDFTLKISRVEAEDVGVYYCGQGTQVPYTFGQGTKLEIKR
notes: one-arm
The molecule B21 returned a Kd of 29.1 nM.
